Data from the DeepSol protein solubility set.

test: soluble on expression in E. coli; label from the status in PepcDB or PDB records

Question: Which “soluble on expression in E. coli” value does the source give for “MGGSVDFERWFKGPAAIYGGIEYQTPYQPLRLKVEYDSNDYSQDFPVTRGNVDMTQHTPWNFGVLYGLGDWGDIKVSYQRGDTLTLGVNLTTNFNDMKAIWRDEPITAYDESSNQSIDEVDWQRVNQQLNGNAGYEDNRIYADDDSVTLVATQTKYRDSDEAHDRASRIFANHVPETISTYRIIETNQSMPVSETLIDAAQYKKVANNEYFDAKVADASQTDEVTYSPSEHSLKSDNLDRWDYSVSPTLSQSIGSAESFYLYAVGINTAGSVWLTDKVQASGSLYFNLFDNYDKFNYITPPDGTSVPRVRTMFRAYVHENPVRMNNLQLTWFEEYGAGFYSQMYAGYLESMFGGIGSEVMYRPLNSNWAFGIDATYIKQRTPGDWFGFYEQDHQEGGDYGRDYTVVSSGVTGFATAYYAPQWSFLKNTLLKVGVGQFLAGDKGTRIDFSKQFDSGVIAGAYASFTDLSAEEFGEGSYTKGFYISIPFDIMTVKPSKNRANFNWQPLTRDGGQMLNKQHDLYELTDERSPWFTRKGLLEHHHHHH” here?
Answer: not soluble

Question: For “MGGVMSYFRGLFGAREMRILILGLDGAGKTTILYRLQVGEVVTTIPTIGFNVEQVEYKNLKFQVWDLGGQTSIRPYWRCYYANTDAIIYVVDSADRDRVGISRQELATMLQEDELQGAVLAVLANKQDIAGCLTETEVYKALGLDALRNRTIQIFKTSASKGEGLDPAMDWLANQLQQKK”, which “soluble on expression in E. coli” value is on record?
Answer: not soluble

Question: For “MGHHHHHHGGHMSLNTISSLETTDLPAAYHIEQRAHAFPWSEKTFASNQGERYLNFQLTQNGKMAAFAITQVVLDEATLFNIAVDPDYQRQGLGRALLEHLIDELEKRGVATLWLEVRASNAAAIALYESLGFNEATIRRNYYPTTDGREDAIIMALPISMEGGS”, which “soluble on expression in E. coli” value is on record?
Answer: soluble

Question: With “MGHHHHHHGGHMSLQDFKKLPTVLTAEELIDKIFRRAARVEGRNPKEKALNKLATISNVSRDYFGKIIGAHPSYENLPDFYREMVDVVVGIRQLKKSLVALKWADGMIQKVVSRAVREVKGGKNPSAVVKSAYGRVASIIEQIDDELRFLNDAKNRMREIPILQDLPTIVVAGYPNVGKSSLVARISTVKPEVASYPFTTKKINLGFAEFAGKRVQIIDTPGLLDRPLSKRNRIERRAVLALKHLADIILFVIDPTETCGYSLEKQLSLLEEIKGYFAKPTVEVYSKADMHDRRDRQAYSAVTGEGIDELIKEIEKMVKIHSQTSTVIAPSGQTSTQEQHSEGGS” as the sequence, how does the “soluble on expression in E. coli” value read?
Answer: soluble

Question: With “MGHHHHHHGGHMSLTDVNVKIDIMHPQPIVGLGNPAIFVQGSTQNYKEYTSLETLAKDFATTTTVYKKAEIIWKQENKPQTIAVVTFVADTPTSPEQPDSLIAGSGIIAAATSYFYNDWHFALLANFVEADALALSNLIEENEFKFLVIQTATVDELTVFTGNNLTIGLVHPLEEFLDAALIGNTASLTVGSVTWKFRHNLVGITPNTLTTSQLQAIEKANAIAYVSKAGIPQTSEGKTMSGEFIDALHGDHWVKSNIETNVQRLLSTTDKLTFDSNGIALLDTTVANVLETAFNNGIVDIVDETGVGNYSVTALGRQDLNPDDIAARNYKGLSFKYKRSGAIHTVDVTGTIEVEGGS” as the sequence, how does the “soluble on expression in E. coli” value read?
Answer: soluble

Question: For “MGHHHHHHSHEHCAIILEDDRSDISSTCANNINHNTELLPIELDTLVGKGRFAEVYKAKLKQNTSEQFETVAVKIFPYEEYASWKTEKDIFSDINLKHENILQFLTAEERKTELGKQYWLITAFHAKGNLQEYLTRHVISWEDLRKLGSSLARGIAHLHSDHTPCGRPKMPIVHRDLKSSNILVKNDLTCCLCDFGLSLRLDPTLSVDDLANSGQVGTARYMAPEVLESRMNLENAESFKQTDVYSMALVLWEMTSRCNAVGEVKDYEPPFGSKVREHPCVESMKDNVLRDRGRPEIPSFWLNHQGIQMVCETLTECWDHDPEARLTAQCVAERFSELEHLDRLSGRSCSEEKIPEDGSLNTTK”, which “soluble on expression in E. coli” value is on record?
Answer: not soluble

Question: Which “soluble on expression in E. coli” value does the source give for “MGHHHHHHSHESVVPARMAEMARCIRERDFPSFAQLTMKDSNQFHATCLDTFPPISYLNAISWRIIHLVHRFNAHHGDTKVAYTFDAGPNAVIFTLDDTVAEFVAAVWHGFPPGSNGD” here?
Answer: not soluble

Question: With “MGHHHHHHSHLEDFFKNMVKSADGVIVSGVKDVDDFFEHERTFLLEYHNRVKDASAKSDRMTRSHKSAADDYNRIGSSLYALGTQDSTDICKFFLKVSELFDKTRKIEARVSADEDLKLSDLLKYYLRESQAAKDLLYRRSRSLVDYENANKALDKARAKNKDVLQAETSQQLCCQKFEKISESAKQELIDFKTRRVAAFRKNLVELAELELKHAKGNLQLLQNCLAVLNGDT” as the sequence, how does the “soluble on expression in E. coli” value read?
Answer: not soluble

Question: With “MGHHHHHHSHMAAAIASSLIRQKRQAREREKSNACKCVSSPSKGKTSCDKNKLNVFSRVKLFGSKKRRRRRPEPQLKGIVTKLYSRQGYHLQLQADGTIDGTKDEDSTYTLFNLIPVGLRVVAIQGVQTKLYLAMNSEGYLYTSELFTPECKFKESVFENYYVTYSSMIYRQQQSGRGWYLGLNKEGEIMKGNHVKKNKPAAHFLPKPLKVAMYKEPSLHDLTEFSRSGSGTPTKSRSVSGVLNGGKSMSHNEST” as the sequence, how does the “soluble on expression in E. coli” value read?
Answer: soluble

Question: With “MGHHHHHHSHMAAAVAMETDDAGNRLRFQLELEFVQCLANPNYLNFLAQRGYFKDKAFVNYLKYLLYWKDPEYAKYLKYPQCLHMLELLQYEHFRKELVNAQCAKFIDEQQILHWQHYSRKRMRLQQALAEQQQQNNTSGK” as the sequence, how does the “soluble on expression in E. coli” value read?
Answer: soluble

Question: With “MGHHHHHHSHMAATAAVSPSDYLQPAASTTQDSQPSPLALLAATCSKIGPPAVEAAVTPPAPPQPTPRKLVPIKPAPLPLSPGKNSFGILSSKGNILQIQGSQLSASYPGGQLVFAIQNPTMINKGTRSNANIQYQAVPQIQASNSQTIQVQPNLTNQIQIIPGTNQAIITPSPSSHKPVPIKPAPIQKSSTTTTPVQSGANVVKLTGGGGNVTLTLPVNNLVNASDTGAPTQLLTASCQTGMLNSTRMFLFLAFINVL” as the sequence, how does the “soluble on expression in E. coli” value read?
Answer: not soluble

Question: Which “soluble on expression in E. coli” value does the source give for “MGHHHHHHSHMACKCDCKNKQCKCGDKCECSGDKCCEKYCCEEASEKKCCPAGCKGDCKCANCHCAEQKQCGDKTHQHQGTAAAH” here?
Answer: not soluble

Question: Which “soluble on expression in E. coli” value does the source give for “MGHHHHHHSHMAGAQPGVHALQLKPVCVSDSLKKGTKFVKWDDDSTIVTPIILRTDPQGFFFYWTDQNKETELLDLSLVKDARCGRHAKAPKDPKLRELLDVGNIGRLEQRMITVVYGPDLVNISHLNLVAFQEEVAKEWTNEVFSLATNLLAQNMSRDAFLEKAYTKLKLQVTPEGRIPLKNIYRLFSADRKRVETALEACSLPSSRN” here?
Answer: not soluble

Question: For “MGHHHHHHSHMARATTKQDLIMASNGQFEKLWVLIDGMSDDLQNATFADQMATAGKEAHWGRDKNLRDVLVHLYEWHQLLLNWINSNSKGERKPFLPEPYNWKTYSVMNVEFWKKHQQTPLAEAKDKLKESHRQVMALIETFSNDELFAKGVFDWTDTSTLGAYCVSATSSHYDWAMKKIKLHIKTGK”, which “soluble on expression in E. coli” value is on record?
Answer: soluble

Question: With “MGHHHHHHSHMDDAAVLKRRGYLLGINLGEGSYAKVKSAYSERLKFNVAIKIIDRKKAPADFLEKFLPREIEILAMLNHCSIIKTYEIFETSHGKVYIVMELAVQGDLLELIKTRGALHEDEARKKFHQLSLAIKYCHDLDVVHRDLKCDNLLLDKDFNIKLSDFSFSKRCLRDDSGRMALSKTFCGSPAYAAPEVLQGIPYQPKVYDIWSLGVILYIMVCGSMPYDDSNIKKMLRIQKEHRVNFPRSKHLTGECKDLIYHMLQPDVNRRLHIDEILSHCWMQPKARGSPSVA” as the sequence, how does the “soluble on expression in E. coli” value read?
Answer: not soluble

Question: For “MGHHHHHHSHMEKIKIIVASDSIGETAELVARAGISQFNPKQCKNELLRYPYIESFEDVDEVIQVAKDTNAIIVYTLIKPEMKQYMSEKVAEFQLKSVDIMGPLMDLLSASVEEKPYNEPGIVHRLDDAYFKKIDAIEFAVKYDDGKDPKGLPKADIVLLGISRTSKTPLSQYLAHKSYKVMNVPIVPEVTPPDGLYDIDPKKCIALKISEEKLNRIRKERLKQLGLGDTARYATEARIQEELNYFEEIVSEIGCPVIDVSQKAIEETANDIIHYIEQNKSK”, which “soluble on expression in E. coli” value is on record?
Answer: soluble

Question: For “MGHHHHHHSHMEKNLLLTIESLYKNLRKANKAVDFTTVKFLLQDSRSLLHAFSTRSNYDGILPQTFAQVNNLLQTFAEVKTKLKPNSSENTVTKKQEGTSLKNSHNQEITVFSSSHLPQPSRHQEIWSILESVWITIYQNSTDVFQRLGSNSALTTSNIASFEEAFICLQKLMAAVRDILEGIQRILAPNSNYQDVETLYNFLIKYEVNKNVKFTAQEIYDCVSQTEYREKLTIGCRQLVEMEYTMQQCNASVYMEAKNRGWCEDMLNYRI”, which “soluble on expression in E. coli” value is on record?
Answer: not soluble

Question: For “MGHHHHHHSHMFNVMVDAKAQSTKLCSMEMGQEFAKMWHQYHSKIDELIEETVKEMITLLVAKFVTILEGVLAKLSRYDEGTLFSSFLSFTVKAASKYVDVPKPGMDVADAYVTFVRHSQDVLRDKVNEEMYIERLFDQWYNSSMNVICTWLTDRMDLQLHIYQLKTLIRMVKKTYRDFRLQGVLDSTLNSKTYETIRNRLTVEEATASVSEGGGLQGISMKDSDEEDEEDD”, which “soluble on expression in E. coli” value is on record?
Answer: not soluble

Question: With “MGHHHHHHSHMFVSDFRKEFYEVVQSQRVLLFVASDVDALCACKILQALFQCDHVQYTLVPVSGWQELETAFLEHKEQFHYFILINCGANVDLLDILQPDEDTIFFVCDTHRPVNVVNVYNDTQIKLLIKQDDDLEVPAYEDIFRDEEED” as the sequence, how does the “soluble on expression in E. coli” value read?
Answer: soluble

Question: For “MGHHHHHHSHMISAHRNLHLPGSSNSPASAFLSSWDYRHVPPCPANVVFLVEMGFLHVGQAGLELPTSDDPPTLASQSAGITGVSHRTWQEFASLTVSQAVLRMLVWGPQFENHCSKLLMASEGDSSLVFFLYPLSNLN”, which “soluble on expression in E. coli” value is on record?
Answer: not soluble

Question: With “MGHHHHHHSHMKGIMVQGTASDVGKSLICTALCRIFARRGYKVTPFKSQNMSNNSYITVEGLEIGRAQGIQAEAAMEEASVYMNPILLKPRNDREAEIVCFGQAVDTVSGVKYRDGFYKRGLEAIKQALATLSQSFDMVVIEGAGSPVEVNLNDRELVNMKVAELADVPVILVADIERGGVFASLYGTLELLQPNERKRVVGIIVNKFRGDPELFSSGVQWIEQHLGVPVLGVLPHLPGVRIEGEDSLSKGQVTSVLP” as the sequence, how does the “soluble on expression in E. coli” value read?
Answer: not soluble

Question: Which “soluble on expression in E. coli” value does the source give for “MGHHHHHHSHMKSQGQHWYSSSDKNCKVSFREKLLIIDSNLGVQDVENLKFLCIGLVPNKKLEKSSSASDVFEHLLAEDLLSEEDPFFLAELLYIIRQKKLLQHLNCTKEEVERLLPTRQRVSLFRNLLYELSEGIDSENLKDMIFLLKDSLPKTEMTSLSFLAFLEKQGKIDEDNLTCLEDLCKTVVPKLLRNIEKYKREKAIQIVTPPVDKEAESYQGEEELVSQTDVKTFLEALPQESWQNKHAGSNGNRATNGAPSLVSRGMQGASANTLNSETSTKRAAVYRMNRNHRGLCVIVNNHSFTSLKDRQGTHKDAEILSHVFQWLGFTVHIHNNVTKVEMEMVLQKQKCNPAHADGDCFVFCILTHGRFGAVYSSDEALIPIREIMSHFTALQCPRLAEKPKLFFIQACQGEEIQPSVSIEADALNPEQ” here?
Answer: not soluble

Question: With “MGHHHHHHSHMLKSERKQIILSQLKQDGFVTLENLTVLLSDTSESTIRRDLDELAADGKLKRVHGGAESIHGLKEEIANSQKAIRNVQEKAQLAGYAADLIKEGDVVFLEASTTNELLIPHLSNRQVTVVTNSIHHAVKLVDLGISTRIIGGKVKHSTDASIGSTALEQIRQLNFDCAFIGANGVDANYFTTPDMEEAVIKRTVIANAQKAYVLADASKLGQITYAKVAEVEKVTIITNASEEGLLKELKEKTRVIEV” as the sequence, how does the “soluble on expression in E. coli” value read?
Answer: soluble
